According to patent US7393670B2, “Tyrosyl-tRNA synthetase variants” (Japan Science and Technology Agency, priority 2001, dated 2008):

How the values were obtained:
Assay type in all cases: biochemical
[1] = system: tyrosine or 3-iodotyrosine for the full-length tRNA; test: Aminoacylation of full-length tRNA by acidic polyacrylamide gel electrophoresis (Wolfson); settings: acidic PAGE; 200 μM amino acid, enzyme 50 nM, 37° C. for 3 min
Description: In the third method, levels of aminoacylation activity in the presence of tyrosine or 3-iodotyrosine for the full-length tRNA were assayed by the same method as. acidic polyacrylamide gel electrophoresis described by Wolfson et al. (Wolfson, A. D. et al., RNA, 4:1019-1023, 1998). The result is shown in FIG. 1 as a photo, substitute for a drawing.
In the third method, the aminoacylation activity for tyrosine or 3-iodotyrosine for tRNA in full length was assayed by the same method as acidic polyacrylamide electrophoresis by the method of Wolfson et al. (Wolfson, A. D. et al., RNA, 4:1019-1023, 1998). Tyrosine or iodotyrosine at 200 μM and the enzyme at 50 nM were incubated at 37° C. for 3 min, and subsequently the electrophoresis was carried out. The result of the aminoacylation activity of the enzymes with double mutations are shown on the photo, substitute for a drawing, in FIG. 1. In FIG. 1, left three lanes are from the wild-type enzyme, middle three lanes are from the enzyme modified at position 37 with valine (37V) and right three lanes are from the enzyme modified at positions 37 and 195 with valine and cysteine (VC), respectively. Three lanes in each group show the case without the addition of the amino acid (w/o aa), the case with the addition of 3-iodotyrosine (200 μM) (1-Tyr), and the case with the addition of tyrosine (200 μM) (Tyr), respectively from the left.

[2] = system: wheat germ cell-free translation system; test: LC-MS analysis of K3 fragment of Ras translation products; settings: absorbance of chromatogram
Description: It was examined by mass spectrometry that iodotyrosine was actually inserted at the position corresponding to the amber codon of the peptide chain. Ras protein purified using nickel beads was applied on SDS-PAGE. A band corresponding to a mobility of Ras among stained product bands was cut out and treated with peptidase. A resultant fragment was analyzed by LC-MS (liquid chromatography—mass spectrometry). The 32nd codon of Ras protein used as a reporter protein is the codon for tyrosine. […] Among the fragments obtained by digesting the translation products, the fragment including the 32nd amino acid from N-terminus (Ser 17 to Lys 42, referred to as K3 fragment) was focused and analyzed. […] No K3 fragment was detected where the other amino acid was accidentally inserted at the site corresponding to the amber codon. The ratio of iodotyrosine to tyrosine inserted to the amber codon was examined by absorbance of chromatogram. […] On the other hand, no fragment having the mass corresponding to the case encompassing iodotyrosine in place of tyrosine was detected in the analysis of the translation products from mRNA which contained no amber codon. […]
It was examined by mass spectrometric analysis that iodotyrosine was actually inserted at the position corresponding to the amber codon of the peptide chain. […] Elutes were analyzed by Finnigan LCQ ion trap mass spectrometer using ESI probe. […]

[3] = Aminoacylation reaction, simplified Lloyd's method, inorganic phosphate detected with Biomol green; design: key: ***: the reaction could be detected strongly at 25 nM; **: strongly at 250 nM; *: weakly at 250 nM; the activity is high in the order of *** > ** > * > —; settings: Table 3; tyrosine 200 μM; 37° C. for 4 min
Description: (§1) In the first method, Lloyd's method (Nucleic Acids Research, 23:2886-2892, 1995) where inorganic phosphate produced by pyrophosphatase-drived hydrolysis of pyrophosphate which was one of the reaction products of the aminoacylation reactions was quantified was simplified, and the inorganic phosphate was detected using Biomol green (Funakoshi) to carry out the measurement of the aminoacylation reaction.
(§2) Amino acid concentrations were 200 μM and 1 mM for tyrosine and 3-iodotyrosine, respectively.
The method where the aminoacylation reaction is measured by quantifying inorganic phosphate produced by pyrophosphatase-drived hydrolysis of pyrophosphate which is one of reaction products of the aminoacylation has been described by Lloyd et al. (Nucleic Acids Research, 23:2886-2892, 1995). In one method of the invention, this method was simplified and the aminoacylation reaction was measured by the detection of inorganic phosphate using Biomol green (Funakoshi). […] To stop the reaction, 0.1 ml of Bio mol green was added. Absorbance of its supernatant was measured at 630 nm.

[4] = as above; design: key: ***: the reaction could be detected strongly at 25 nM; **: strongly at 250 nM; *: weakly at 250 nM; the activity is high in the order of *** > ** > * > —; settings: Table 3; 3-iodotyrosine 1 mM; 37° C. for 4 min
Description: as §1, §2
The method where the aminoacylation reaction is measured by quantifying inorganic phosphate produced by pyrophosphatase-drived hydrolysis of pyrophosphate which is one of reaction products of the aminoacylation has been described by Lloyd et al. (Nucleic Acids Research, 23:2886-2892, 1995). In one method of the invention, this method was simplified and the aminoacylation reaction was measured by the detection of inorganic phosphate using Biomol green (Funakoshi). Each enzyme obtained was incubated with 0.05 ml of the buffer B containing 1 mM ATP (Seikagaku Corporation), 30 μM purified crude tyrosyl-tRNA, and 100 μM tyrosine or 0.5 mM 3-iodotyrosine at 37° C. for one hour. To stop the reaction, 0.1 ml of Bio mol green was added. Absorbance of its supernatant was measured at 630 nm.

B1: VC: E. coli TyrRS double variant: position 37 Valine, position 195 Cysteine (protein, UniProt P0AGJ9 2-424, looked up, variant Y37V Q195C)
Tyrosine--tRNA ligase: ASSNLIKQLQERGLVAQVTDEEALAERLAQGPIALVCGFDPTADSLHLGHLVPLLCLKRFQQAGHKPVALVGGATGLIGDPSFKAAERKLNTEETVQEWVDKIRKQVAPFLDFDCGENSAIAANNYDWFGNMNVLTFLRDIGKHFSVNQMINKEAVKQRLNREDQGISFTEFSYNLLQGYDFACLNKQYGVVLCIGGSDQWGNITSGIDLTRRLHQNQVFGLTVPLITKADGTKFGKTEGGAVWLDPKKTSPYKFYQFWINTADADVYRFLKFFTFMSIEEINALEEEDKNSGKAPRAQYVLAEQVTRLVHGEEGLQAAKRITECLFSGSLSALSEADFEQLAQDGVPMVEMEKGADLMQALVDSELQPSRGQARKTIASNAITINGEKQSDPEYFFKEEDRLFGRFTLLRRGKKNYCLICWK
- specificity for the tyrosine analogue (attachment of amino acid to tRNA) [1]: high specificity for the tyrosine analogue
- K3 fragments encompassing iodotyrosine by the amber suppression [2]: ≥ 95%
- ratio of tyrosine insertion at the amber codon [2]: ≤ 5%
- Aminoacylation activity, Tyrosine [3]: *
- Aminoacylation activity, 3-iodotyrosine [4]: **
